Key:
Assay in all cases: pull-down
[1] = target: T1, RP2 R118H disease-linked mutant, purified recombinant (human, UniProt O75695 1-350, R118H)
T1 sequence (looked up): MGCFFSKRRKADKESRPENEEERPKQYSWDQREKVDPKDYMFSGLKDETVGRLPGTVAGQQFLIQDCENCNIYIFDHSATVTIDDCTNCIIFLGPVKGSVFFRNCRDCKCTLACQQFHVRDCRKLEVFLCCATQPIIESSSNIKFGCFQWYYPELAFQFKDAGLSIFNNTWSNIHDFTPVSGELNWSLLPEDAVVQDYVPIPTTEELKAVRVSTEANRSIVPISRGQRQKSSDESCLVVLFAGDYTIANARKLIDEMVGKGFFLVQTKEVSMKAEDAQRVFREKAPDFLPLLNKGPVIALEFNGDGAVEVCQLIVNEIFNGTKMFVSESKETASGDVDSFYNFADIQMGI

[2] = target: T2, purified recombinant wild-type human RP2 (human, UniProt O75695 1-350)
T2 sequence (looked up): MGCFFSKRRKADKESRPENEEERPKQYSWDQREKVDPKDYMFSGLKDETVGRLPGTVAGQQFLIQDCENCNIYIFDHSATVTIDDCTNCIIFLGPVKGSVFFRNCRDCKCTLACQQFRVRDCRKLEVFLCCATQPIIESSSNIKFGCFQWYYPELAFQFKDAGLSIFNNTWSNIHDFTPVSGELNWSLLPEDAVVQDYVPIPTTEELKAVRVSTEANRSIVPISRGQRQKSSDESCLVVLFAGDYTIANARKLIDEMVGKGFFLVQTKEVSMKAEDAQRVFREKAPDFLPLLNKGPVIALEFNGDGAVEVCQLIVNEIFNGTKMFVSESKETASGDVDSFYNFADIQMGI

[3] = target: T3, RP2 L188P disease-causing mutant, purified recombinant (human, UniProt O75695 1-350, L188P)
T3 sequence (looked up): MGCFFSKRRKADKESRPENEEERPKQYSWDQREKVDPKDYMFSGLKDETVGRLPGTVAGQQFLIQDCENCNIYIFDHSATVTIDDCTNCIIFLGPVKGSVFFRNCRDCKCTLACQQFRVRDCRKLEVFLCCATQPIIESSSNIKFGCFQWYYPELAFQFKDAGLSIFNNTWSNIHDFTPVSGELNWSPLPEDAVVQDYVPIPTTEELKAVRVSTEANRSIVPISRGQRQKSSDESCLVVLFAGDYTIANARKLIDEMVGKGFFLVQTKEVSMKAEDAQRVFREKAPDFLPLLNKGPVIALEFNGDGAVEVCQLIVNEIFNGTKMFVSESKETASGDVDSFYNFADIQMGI

[4] = target: T4, RP2 R282W disease-linked mutant, purified recombinant (human, UniProt O75695 1-350, R282W)
T4 sequence (looked up): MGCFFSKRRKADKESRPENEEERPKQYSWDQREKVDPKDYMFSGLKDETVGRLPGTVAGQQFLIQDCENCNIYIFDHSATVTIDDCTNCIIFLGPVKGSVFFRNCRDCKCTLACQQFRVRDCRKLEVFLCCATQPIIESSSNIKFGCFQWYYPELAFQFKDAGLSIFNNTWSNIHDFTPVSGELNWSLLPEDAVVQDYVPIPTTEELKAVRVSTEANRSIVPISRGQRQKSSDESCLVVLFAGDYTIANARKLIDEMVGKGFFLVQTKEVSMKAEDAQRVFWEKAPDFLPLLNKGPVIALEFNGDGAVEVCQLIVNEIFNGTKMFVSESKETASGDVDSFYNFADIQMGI

Measured: binding result

B1: GST fusion protein containing the N-terminal domain of NSF (domain or fragment, Chinese hamster, UniProt P18708 1-205, looked up)
chain: MAGRSMQAARCPTDELSLSNCAVVSEKDYQSGQHVIVRTSPNHKYIFTLRTHPSVVPGSVAFSLPQRKWAGLSIGQEIEVALYSFDKAKQCIGTMTIEIDFLQKKNIDSNPYDTDKMAAEFIQQFNNQAFSVGQQLVFSFNDKLFGLLVKDIEAMDPSILKGEPASGKRQKIEVGLVVGNSQVAFEKAENSSLNLIGKAKTKENR
binds: all assays above

— article PMC2942077 (Biochemistry, 2010)
